In patent US20250250357A1 (NANJING ZAIMING PHARMACEUTICAL, published 2025):

Experiments:
[1] = target: T1, human MSLN-R1-his protein (human, UniProt Q13421 296-390); assay: ELISA, antibody 0 nM (blank)
T1 construct: also called hMSLN-R1-his; human MSLN-R1 protein
T1 chain: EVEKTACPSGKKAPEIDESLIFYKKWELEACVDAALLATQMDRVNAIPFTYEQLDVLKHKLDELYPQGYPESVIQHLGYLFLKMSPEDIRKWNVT

[2] = target: T1, human MSLN-R1-his protein; assay: ELISA, antibody 0.1 nM
[3] = target: T1, human MSLN-R1-his protein; assay: ELISA, antibody 0.001 nM
[4] = target: T1, human MSLN-R1-his protein; assay: ELISA, antibody 0.0001 nM
[5] = target: T1, human MSLN-R1-his protein; assay: ELISA, antibody 10 nM
[6] = target: T1, human MSLN-R1-his protein; assay: ELISA, antibody 0.01 nM
[7] = target: T1, human MSLN-R1-his protein; assay: ELISA, antibody 1 nM
[8] = target: T1, human MSLN-R1-his protein; assay: ELISA, antibody 100 nM
[9] = target: T2, human MSLN-R3-his protein (human, UniProt Q13421 487-598); assay: ELISA; antibody 1 nM
T2 construct: also called hMSLN-R3-his; not shown: His tag
T2 sequence (Q13421 495-606): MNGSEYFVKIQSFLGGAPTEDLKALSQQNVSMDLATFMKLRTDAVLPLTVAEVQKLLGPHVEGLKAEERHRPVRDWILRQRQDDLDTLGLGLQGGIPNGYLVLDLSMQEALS

[10] = target: T3, human MSLN-R2-his protein (human, UniProt Q13421 391-486); assay: ELISA; antibody 0 nM (blank)
T3 construct: also called hMSLN-R2-his; not shown: His tag
T3 sequence (Q13421 other isoform, or with tags, fused parts or gaps): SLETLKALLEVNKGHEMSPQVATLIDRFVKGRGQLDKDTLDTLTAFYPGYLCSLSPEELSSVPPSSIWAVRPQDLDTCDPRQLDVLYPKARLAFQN

[11] = target: T3, human MSLN-R2-his protein; assay: ELISA; antibody 100 nM
[12] = target: T3, human MSLN-R2-his protein; assay: ELISA; antibody 0.1 nM
[13] = target: T2, human MSLN-R3-his protein; assay: ELISA; antibody 100 nM
[14] = target: T3, human MSLN-R2-his protein; assay: ELISA; antibody 0.0001 nM
[15] = target: T3, human MSLN-R2-his protein; assay: ELISA; antibody 10 nM
[16] = target: T2, human MSLN-R3-his protein; assay: ELISA; antibody 0.01 nM
[17] = target: T2, human MSLN-R3-his protein; assay: ELISA; antibody 0.0001 nM
[18] = target: T2, human MSLN-R3-his protein; assay: ELISA; antibody 0 nM (blank)
[19] = target: T3, human MSLN-R2-his protein; assay: ELISA; antibody 0.001 nM
[20] = target: T2, human MSLN-R3-his protein; assay: ELISA; antibody 0.1 nM
[21] = target: T2, human MSLN-R3-his protein; assay: ELISA; antibody 10 nM
[22] = target: T3, human MSLN-R2-his protein; assay: ELISA; antibody 0.01 nM
[23] = target: T3, human MSLN-R2-his protein; assay: ELISA; antibody 1 nM
[24] = target: T2, human MSLN-R3-his protein; assay: ELISA; antibody 0.001 nM
[25] = target: T2, human MSLN-R3-his protein; assay: ELISA; antibody 1 nM; remark: listed apart in the source
[26] = target: T3, human MSLN-R2-his protein; assay: ELISA; antibody 1 nM; remark: listed apart in the source
[27] = target: T4, human MSLN-R3-3 polypeptide (human); assay: ELISA; antibody 1 nM
T4 construct: also called hMSLN-R3-3

[28] = target: T5, human MSLN on OVCAR3 tumor cells (human, UniProt Q13421 296-598); assay: FACS, OVCAR3 cells
T5 construct: whole, on cells; also called human MSLN protein
T5 sequence (Q13421 other isoform, or with tags, fused parts or gaps): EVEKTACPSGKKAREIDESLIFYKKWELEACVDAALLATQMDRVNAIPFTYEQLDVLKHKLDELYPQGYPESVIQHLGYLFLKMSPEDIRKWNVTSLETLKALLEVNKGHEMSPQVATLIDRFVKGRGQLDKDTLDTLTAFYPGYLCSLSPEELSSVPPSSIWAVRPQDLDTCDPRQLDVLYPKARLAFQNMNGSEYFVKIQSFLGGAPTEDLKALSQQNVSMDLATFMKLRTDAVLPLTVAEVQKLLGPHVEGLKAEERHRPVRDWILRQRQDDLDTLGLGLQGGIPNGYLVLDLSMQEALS

[29] = target: T6, human MSLN-R3 protein (human, UniProt Q13421 487-598); assay: ELISA, MSLN-R3 coated, antibody 0.01 nM
T6 construct: also called hMSLN-R3
T6 sequence (Q13421 495-606): as the sequence (Q13421 495-606) above

[30] = target: T7, monkey MSLN on HEK293T-monkey MSLN recombinant cells (monkey); assay: FACS, HEK293T-monkey MSLN cells
T7 construct: Full-length precursor as transfected; processing on the cell is not described; also called HEK293-monkey MSLN
T7 chain: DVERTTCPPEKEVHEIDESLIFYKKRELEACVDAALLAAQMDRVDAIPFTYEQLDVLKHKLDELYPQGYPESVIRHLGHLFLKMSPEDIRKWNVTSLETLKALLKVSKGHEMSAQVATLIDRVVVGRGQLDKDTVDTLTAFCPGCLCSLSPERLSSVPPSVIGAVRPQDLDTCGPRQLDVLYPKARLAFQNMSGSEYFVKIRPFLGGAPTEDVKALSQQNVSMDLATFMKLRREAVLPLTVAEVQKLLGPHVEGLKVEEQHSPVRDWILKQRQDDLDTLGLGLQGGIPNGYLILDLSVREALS

[31] = target: T8, human MSLN-hFc recombinant protein (human, UniProt Q13421 296-580); assay: SPR (Biacore 8K), MSLN-hFc captured, antibody injected
T8 construct: Captured by an anti-human IgG antibody on the chip; also called human MSLN protein; Acro MSN-H5253
T8 sequence (Q13421 other isoform, or with tags, fused parts or gaps): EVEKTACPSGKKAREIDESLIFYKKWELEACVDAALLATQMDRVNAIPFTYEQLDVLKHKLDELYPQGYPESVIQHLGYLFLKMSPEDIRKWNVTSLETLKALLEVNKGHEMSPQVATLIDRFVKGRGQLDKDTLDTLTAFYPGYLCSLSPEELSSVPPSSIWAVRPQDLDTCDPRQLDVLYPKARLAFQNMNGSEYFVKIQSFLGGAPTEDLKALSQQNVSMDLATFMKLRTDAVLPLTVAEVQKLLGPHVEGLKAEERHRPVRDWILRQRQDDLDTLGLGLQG

[32] = target: T6, human MSLN-R3 protein; assay: ELISA, MSLN-R3 coated, antibody 100 nM
[33] = target: T6, human MSLN-R3 protein; assay: ELISA, MSLN-R3 coated, antibody 0.0001 nM
[34] = target: T9, human MSLN-R3 on HEK293T-hMSLN-R3 recombinant cells (human, UniProt Q13421 487-606); assay: FACS, HEK293T-hMSLN-R3 cells
T9 construct: the C-terminal limit is uncertain; also called human MSLN-R3 membrane protein
T9 sequence (Q13421 495-614): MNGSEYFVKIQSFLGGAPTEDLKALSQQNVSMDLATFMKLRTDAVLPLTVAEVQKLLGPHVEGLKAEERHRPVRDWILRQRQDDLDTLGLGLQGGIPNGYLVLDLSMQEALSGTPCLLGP

[35] = target: T6, human MSLN-R3 protein; assay: ELISA, MSLN-R3 coated, antibody 0.001 nM
[36] = target: T6, human MSLN-R3 protein; assay: ELISA, MSLN-R3 coated, antibody 0.1 nM
[37] = target: T6, human MSLN-R3 protein; assay: ELISA, MSLN-R3 coated, antibody 1 nM
[38] = target: T6, human MSLN-R3 protein; assay: ELISA, MSLN-R3 coated, antibody 10 nM
[39] = target: T10, human MSLN-hFc protein (Acro, Cat. No. MSN-H5253) (human, UniProt Q13421 296-580); assay: ELISA, coated human MSLN-hFc
T10 construct: bought

[40] = target: T11, human MSLN-FL-his protein (human, UniProt Q13421 296-580); assay: SPR (Biacore), antibody captured on Protein A, MSLN-FL-his injected
T11 construct: also called hMSLN-FL-his; human MSLN full-length protein

[41] = target: T11, human MSLN-FL-his protein; assay: ELISA

B1: Tab107 (YP3, hIgG1) (antibody, V domains shown)
VH: QEQLVESGGGLVQPGASLTLTCTASGIDFSRYYMCWVRQAPGKGLEGIACIYIGGSGSTYYASWAKGRFTISKASSTTVTLQMTSLTAADTATYFCARGTNLNYIFRLWGPGTLVTVSS
VL: DVVMTQTPSPVSAAVGGTVTIKCQASQSINNGLAWYQQKPGQPPRLLIYSASNLESGVPSRFKGSGSGTEFTLTISDLECDDAATYYCQCIWDGNSYVNAFGGGTEVVVRT
notes: also called YP3 human IgG1 antibody
- OD450 nm [1]: 0.05
- OD450 nm [2]: 0.05
- OD450 nm [3]: 0.05
- OD450 nm [4]: 0.04
- OD450 nm [5]: 0.06
- OD450 nm [6]: 0.06
- OD450 nm [7]: 0.05
- OD450 nm [8]: 0.08

B2: Tab020 (YP223, rabbitIgG1) (antibody, V domains shown)
VH: QEQLEESGGDLVQPEGSLTLTCKASGLDFSSSYWICWVRQAPGKGLEWIGCRHTFTANTWSASWVNGRFTISRSTSLGTVDLKMTSLTAADTATYFCARDESNNDGWDFKLWGPGTLVTVSS
VL: AYDMTQTPASVSAAVGGTVTIKCQASQSISNYLAWYQQKPGQPPKLLIYQASTLAPGVSSRFKGSGSGTEFTLTISGVECADAATYYCQQGYTSSNVENVFGGGTGVVVGD
notes: Control antibody; VH and VL recombined into rabbit IgG1 CH and CL expression vectors; also called YP223 rabbit IgG1 antibody; rabbit anti-human MSLN antibody
- OD450 nm [9]: 0.05
- OD450 nm [10]: 0.05
- OD450 nm [11]: 2.5
- OD450 nm [12]: 0.2
- OD450 nm [13]: 0.05
- OD450 nm [14]: 0.05
- OD450 nm [15]: 2.01
- OD450 nm [16]: 0.05
- OD450 nm [17]: 0.05
- OD450 nm [18]: 0.05
- OD450 nm [19]: 0.05
- OD450 nm [20]: 0.05
- OD450 nm [21]: 0.05
- OD450 nm [22]: 0.07
- OD450 nm [23]: 1.49
- OD450 nm [24]: 0.05
- OD450 nm [25]: 0.05
- OD450 nm [26]: 1.49
- OD450 nm [27]: 0.09

B3: F3.38.10-L1H5 (scFv, not shown: small tags and cut ends)
scFv: DIVMTQTPLSLPVTPGEPASISCRSSQSLIHSDGNTYLQWYLQKPGQSPQLLIYKVSNRFSGVPDRFSGSGSGTDFTLKISRVEAEDVGVYYCSQTTHVPFTFGQGTKLEIKGGGGSGGGGSGGGGSEVQLVQSGAEVKKPGASVKVSCKASGYIFTDYYMNWVRQAHGQRLEWMGVINPKNGVISHNQKFKGRVTITVDKSANTAYMELSSLRSEDTAVYYCANYGSRFYAMDYWGQGTTVTVSS
notes: also called S009-F3.38.10 humanized antibody VL1 + VH5
- EC50 [28]: 99.8 nM
- OD450 nm [29]: 0.07 OD
- EC50 [30]: 90.1 nM
- binding result [31]: no binding
- OD450 nm [32]: 2.36 OD
- OD450 nm [33]: 0.07 OD
- EC50 [34]: 12 nM
- Maximum_MFI [34]: 1280 MFI
- OD450 nm [35]: 0.07 OD
- OD450 nm [36]: 0.08 OD
- OD450 nm [37]: 0.27 OD
- OD450 nm [38]: 1.19 OD

B4: F3.38.10-L1H5 (scFv, not shown: small tags and cut ends)
scFv: DIVMTQTPLSLPVTPGEPASISCRSSQSLIHSDGNTYLQWYLQKPGQSPQLLIYKVSNRFSGVPDRFSGSGSGTDFTLKISRVEAEDVGVYYCSQTTHVPFTFGQGTKLEIKGGGGSGGGGSGGGGSEVQLVQSGAEVKKPGASVKVSCKASGYIFTDYYMNWVRQAHGQRLEWMGVINPKNGVISHNQKFKGRVTITVDKSANTAYMELSSLRSEDTAVYYCANYGSRFYAMDYWGQGTTVTVSS
- binding result [39]: no binding (tested: up to 100 nM)

B5: S009-F3.16.1 (antibody, human IgG1, kappa, V domains shown)
VH: EVKFEESGGGLVQPGGSMKLSCVASGFTFSNYWMNWVRQSPEKGLEWVAQIRLKSDNYATHYAESVKGRFSISRDDSKSSVYLQMNNLRAEDTGIYYCSVGTGGYWGQGTTLTVSS
VL: DIVLTQSPASLALSPGKRATISCRASESVSIIGTDVIHWFQQKPGQPPKLLIYHASNLETGVPARFSGSGSRTDFTLTIDPVEEDDVAIYYCLQSRKIPWTFGGGTKLEIKR
notes: chimeric, human IgG1/kappa
- binding result [40]: no binding

B6: F3.38.10-L2H3a (scFv, not shown: small tags and cut ends)
scFv: DIVMTQSPDSLAVSLGERATINCRSSQSLIHSDGNTYLQWYQQKPGQSPKLLIYKVSNRFSGVPDRFSGSGSGTDFTLTISSLQAEDVAVYYCSQTTHVPFTFGQGTKLEIKGGGGSGGGGSGGGGSEVQLVQSGAEVKKPGASVKVSCKASGYIFTDYYMNWVRQAPGQRLEWMGVINPKQGVISHNQKFKGRVTITVDKSANTAYMELSSLRSEDTAVYYCANYGSRFYAMDYWGQGTTVTVSS
- binding result [39]: no binding (tested: up to 100 nM)

B7: S009-F3.38.10 (antibody, human IgG1, kappa, V domains shown)
VH: EVQLQQSGPVLVKPGASVKMSCEASGYIFTDYYMNWVKKSHGKSLEWIGVINPKNGVISHNQKFKGKATLTVDKSSNTAYMELSSLTSEDSAVYYCANYGSRFYAMDYWGQGTSVTVSS
VL: DVVMTQTPLSLPVSLGDQASISCRSSQSLIHSDGNTYLQWYLQKSGQSPKLLIYKVSNRFSGVPDRFSGSGSGTDFTLKISRVETEDLGVYFCSQTTHVPFTFGSGTKLEIKR
notes: chimeric, human IgG1/kappa
- binding result [41]: no binding (tested: up to 100 nM)
